Data from patent US20160272680A1 (Bristol-Myers Squibb, published 2016).
Each block holds one binder with its values, some of them ahead of it. Bridge positions count the residues as written; N and C are the ends. Square brackets hold non-standard residues; d marks the D form. Ends that are not written are not given here. * marks the point of attachment. Hyp = O=C(O)[C@@H]1C[C@@H](O)CN1; NMeNle = CCCC[C@H](NC)C(=O)O; NMeA = CN[C@@H](C)C(=O)O; Dap = NC[C@H](N)C(=O)O; NH(propargyl) = C#CCN*

Molecular target: T1, hPDL1(19-239)-TVMV-His (human, UniProt Q9NZQ7 19-239)
T1 construct: Expressed in HEK293T cells; The text says amino acids 18-239, but the construct is named hPD-L1(19-239); The whole entry, including the TVMV site and His tag, is the protein used in the assay; also called PD-L1-TVMV-His; PD-L1-His
T1 sequence (Q9NZQ7 other isoform, or with tags, fused parts or gaps limits assumed): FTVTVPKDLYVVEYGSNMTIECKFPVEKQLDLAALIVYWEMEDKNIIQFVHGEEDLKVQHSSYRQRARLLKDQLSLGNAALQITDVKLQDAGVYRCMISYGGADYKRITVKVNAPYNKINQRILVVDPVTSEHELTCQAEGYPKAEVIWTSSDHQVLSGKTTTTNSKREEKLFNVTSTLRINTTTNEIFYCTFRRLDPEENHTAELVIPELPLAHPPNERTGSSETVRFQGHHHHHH
Experiment: HTRF competition of PD-1-Ig binding to PD-L1-His; code A=0.01-0.06 µM
Method: Homogenous Time-Resolved Fluorescence (HTRF) Assays of Binding of Soluble PD-1 to Soluble PD-L1. Soluble PD-1 and soluble PD-L1 refers to proteins with carboxyl-end truncations that remove the transmembrane-spanning regions and are fused to heterologous sequences, specifically the Fc portion of the human immunoglobuling G sequence (Ig) or the hexahistidine epitope tag (His). All binding studies were performed in an HTRF assay buffer consisting of dPBS supplemented with 0.1% (w/v) bovine serum albumin and 0.05% (v/v) Tween-20. For the PD-1-Ig/PD-L1-His binding assay, inhibitors were pre-incubated with PD-L1-His (10 nM final) for 15 m in 4 μl of assay buffer, followed by addition of PD-1-Ig (20 nM final) in 1 μl of assay buffer and further incubation for 15 m. PD-L1 fusion proteins from either human, cynomologous macaques, mouse, or other species were used. HTRF detection was achieved using europium crypate-labeled anti-Ig monoclonal antibody (1 nM final) and allophycocyanin (APC) labeled anti-His monoclonal antibody (20 nM final). Antibodies were diluted in HTRF detection buffer and 5 μl was dispensed on top of binding reaction. The reaction was allowed to equilibrate for 30 minutes and signal (665 nm/620 nm ratio) was obtained using an EnVision fluorometer. Additional binding assays were established between PD-1-Ig/PD-L2-His (20 and 5 nM, respectively), CD80-His/PD-L1-Ig (100 and 10 nM, respectively) and CD80-His/CTLA4-Ig (10 and 5 nM, respectively). Binding/competition studies between biotinylated Compound No. 71 and human PD-L1-His were performed as follows. Macrocyclic peptide inhibitors were pre-incubated with PD-L1-His (10 nM final) for 60 minutes in 4 μl of assay buffer followed by addition of biotinylated Compound No. 71 (0.5 nM final) in 1 μl of assay buffer. Binding was allowed to equilibrate for 30 minutes followed by addition of europium crypated labeled Streptavidin (2.5 pM final) and APC-labeled anti-His (20 nM final) in 5 μl of HTRF buffer. The reaction was allowed to equilibrate for 30 m and signal (665 nm/620 nm ratio) was obtained using an EnVision fluorometer.

Binder: {CH2CO}-Y[NMeA]NP[Dap]L[Hyp]WGW[NMeNle][NMeNle]LCG-{morpholine amide} (thioether N-14, Macrocyclic peptide) [Example 13087]
IC50: 10 to 60 nM

Binder: {CH2CO}-Y[NMeA]NP[Dap]L[Hyp]WGW[NMeNle][NMeNle]LCG-{1‑(3-aminopropyl)imidazole amide} (thioether N-14, Macrocyclic peptide) [Example 13099]
IC50: 10 to 60 nM

Binder: {CH2CO}-Y[NMeA]NP[Dap]L[Hyp]WGW[NMeNle][NMeNle]LCG-{ethanolamine amide} (thioether N-14, Macrocyclic peptide) [Example 13095]
IC50: 10 to 60 nM

B1: Example 13096 (peptide)
peptide: {CH2CO}-Y[NMeA]NP[Dap]L[Hyp]WGW[NMeNle][NMeNle]LCG-{NH(propargyl)}
modifications: thioether N-14
SMILES: C#CCNC(=O)CNC(=O)[C@@H]1CSCC(=O)N[C@@H](Cc2ccc(O)cc2)C(=O)N(C)[C@@H](C)C(=O)N[C@@H](CC(N)=O)C(=O)N2CCC[C@H]2C(=O)N[C@@H](CN)C(=O)N[C@@H](CC(C)C)C(=O)N2C[C@H](O)C[C@H]2C(=O)N[C@@H](Cc2c[nH]c3ccccc23)C(=O)NCC(=O)N[C@@H](Cc2c[nH]c3ccccc23)C(=O)N(C)[C@@H](CCCC)C(=O)N(C)[C@@H](CCCC)C(=O)N[C@@H](CC(C)C)C(=O)N1
notes: Macrocyclic peptide
IC50: 10 to 60 nM

Binder: {CH2CO}-Y[NMeA]NP[Dap]L[Hyp]WGW[NMeNle][NMeNle]LCG-butylamide (thioether N-14, Macrocyclic peptide) [Example 13100]
IC50: 10 to 60 nM

Binder: {CH2CO}-Y[NMeA]NP[Dap]L[Hyp]WGW[NMeNle][NMeNle]LCG-{3‑(aminomethyl)pyridine amide} (thioether N-14, Macrocyclic peptide) [Example 13094]
IC50: 10 to 60 nM

Binder: {CH2CO}-Y[NMeA]NP[Dap]L[Hyp]WGW[NMeNle][NMeNle]LCG-allylamide (thioether N-14, Macrocyclic peptide) [Example 13097]
IC50: 10 to 60 nM

The remaining lines, values ahead:

IC50: 10 to 60 nM
Binder: {CH2CO}-Y[NMeA]NP[Dap]L[Hyp]WGW[NMeNle][NMeNle]LCG (thioether N-14; not fully specified (C-terminus), Macrocyclic peptide) [Example 13104]

IC50: 10 to 60 nM
Binder: {CH2CO}-Y[NMeA]NP[Dap]L[Hyp]WGW[NMeNle][NMeNle]LCG-{2‑(phenylthio)ethanamine amide} (thioether N-14, Macrocyclic peptide) [Example 13101]

IC50: 10 to 60 nM
Binder: {CH2CO}-Y[NMeA]NP[Dap]L[Hyp]WGW[NMeNle][NMeNle]LCG-{methylpiperazine amide} (thioether N-14, Macrocyclic peptide) [Example 13089]

IC50: 10 to 60 nM
Binder: {CH2CO}-Y[NMeA]NP[Dap]L[Hyp]WGW[NMeNle][NMeNle]LCG-cyclobutylamide (thioether N-14, Macrocyclic peptide) [Example 13092]

IC50: 10 to 60 nM
Binder: {CH2CO}-Y[NMeA]NP[Dap]L[Hyp]WGW[NMeNle][NMeNle]LCG-{pyrrolidin‑1‑yl amide} (thioether N-14, Macrocyclic peptide) [Example 13085]

IC50: 10 to 60 nM
Binder: {CH2CO}-Y[NMeA]NP[Dap]L[Hyp]WGW[NMeNle][NMeNle]LCG-{4‑(dimethylamino)piperidine amide} (thioether N-14, Macrocyclic peptide) [Example 13103]

IC50: 10 to 60 nM
Binder: {CH2CO}-Y[NMeA]NP[Dap]L[Hyp]WGW[NMeNle][NMeNle]LCG-{N,N‑dimethyl‑1,3‑propanediamine amide} (thioether N-14, Macrocyclic peptide) [Example 13098]
